Article PMC4072508, “Genome-Wide Prediction and Validation of Peptides That Bind Human Prosurvival Bcl-2 Proteins” (PLoS Computational Biology, 2014)

Columns and labels:
Test in all cases: peptide SPOT array, c-Myc-tagged receptor at 1 uM or 100 nM, anti-c-Myc-Cy3
[1] = biological target: T1, Bfl-1, Q16548
T1 chain: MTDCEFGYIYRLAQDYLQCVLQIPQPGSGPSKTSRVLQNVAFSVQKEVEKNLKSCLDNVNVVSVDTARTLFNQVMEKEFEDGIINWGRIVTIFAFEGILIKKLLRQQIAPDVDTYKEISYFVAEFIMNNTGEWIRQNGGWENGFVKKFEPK

[2] = biological target: T2, Mcl-1, Q07820
T2 chain: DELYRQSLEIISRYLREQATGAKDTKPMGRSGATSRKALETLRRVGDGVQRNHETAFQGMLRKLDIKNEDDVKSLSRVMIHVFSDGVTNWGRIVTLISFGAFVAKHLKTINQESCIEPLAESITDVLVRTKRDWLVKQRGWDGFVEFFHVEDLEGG

[3] = biological target: Bcl-xL, Q07817
Bcl-xL, Q07817, sequence (Q07817 1-209): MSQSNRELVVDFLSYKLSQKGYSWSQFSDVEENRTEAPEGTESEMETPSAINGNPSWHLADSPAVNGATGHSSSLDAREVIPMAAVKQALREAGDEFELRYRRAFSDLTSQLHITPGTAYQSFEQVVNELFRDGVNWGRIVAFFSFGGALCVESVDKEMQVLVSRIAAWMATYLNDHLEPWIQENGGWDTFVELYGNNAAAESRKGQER

RLRQLGVAKKFGVLSDNFKGKRIVLV [PPAT]
SPOT signal as a fraction of Bim BH3's signal on the same receptor and array [1]: 0.64 | SPOT signal as a fraction of Bim BH3's signal on the same receptor and array [2]: 1.04 | SPOT signal as a fraction of Bim BH3's signal on the same receptor and array [3]: 1.65

TAGLRPGARLLRVCGQTLPSLRPEAA [SIPA1]
SPOT signal as a fraction of Bim BH3's signal on the same receptor and array [1]: 0.8 | SPOT signal as a fraction of Bim BH3's signal on the same receptor and array [2]: 0.91 | SPOT signal as a fraction of Bim BH3's signal on the same receptor and array [3]: 1.22

TAAAAYRGAHLRGRLRTVYNTFRAAA [XXXX]
SPOT signal as a fraction of Bim BH3's signal on the same receptor and array [1]: 1.55 | SPOT signal as a fraction of Bim BH3's signal on the same receptor and array [2]: 1.64 | SPOT signal as a fraction of Bim BH3's signal on the same receptor and array [3]: 2.37

TSRINEVQVNLSLLLDDLLLPAQSTL [SPHKAP]
SPOT signal as a fraction of Bim BH3's signal on the same receptor and array [1]: 0.03 | SPOT signal as a fraction of Bim BH3's signal on the same receptor and array [2]: 0.04 | SPOT signal as a fraction of Bim BH3's signal on the same receptor and array [3]: 0.05

ISSYMVLAPVFGYLLDRYNRKYLMCG [SPNS1]
SPOT signal as a fraction of Bim BH3's signal on the same receptor and array [1]: 0.78 | SPOT signal as a fraction of Bim BH3's signal on the same receptor and array [2]: 0.73 | SPOT signal as a fraction of Bim BH3's signal on the same receptor and array [3]: 1.11

SQGKHGFTMAMNAFGDMTNEEFRQMM [CTSL2]
SPOT signal as a fraction of Bim BH3's signal on the same receptor and array [1]: 0.08 | SPOT signal as a fraction of Bim BH3's signal on the same receptor and array [2]: 0.09 | SPOT signal as a fraction of Bim BH3's signal on the same receptor and array [3]: 0.08

LLDFFMVSILFSKLLDLLHKLQFVLT [PCNXL2]
SPOT signal as a fraction of Bim BH3's signal on the same receptor and array [1]: 0.07 | SPOT signal as a fraction of Bim BH3's signal on the same receptor and array [2]: 0.08 | SPOT signal as a fraction of Bim BH3's signal on the same receptor and array [3]: 0.1

WTLFVYTKGNDRMIGDDLVNSYHLLL [RBL1]
SPOT signal as a fraction of Bim BH3's signal on the same receptor and array [1]: 0.05 | SPOT signal as a fraction of Bim BH3's signal on the same receptor and array [2]: 0.07 | SPOT signal as a fraction of Bim BH3's signal on the same receptor and array [3]: 0.08

MRSQLGKATALAIMGDKLWWADQVSE [LRP1]
SPOT signal as a fraction of Bim BH3's signal on the same receptor and array [1]: 0.14 | SPOT signal as a fraction of Bim BH3's signal on the same receptor and array [2]: 0.28 | SPOT signal as a fraction of Bim BH3's signal on the same receptor and array [3]: 0.22

GVMTQEVGQLDQDMGDDVYQQYRSLT [HUWE1]
SPOT signal as a fraction of Bim BH3's signal on the same receptor and array [1]: 0.01 | SPOT signal as a fraction of Bim BH3's signal on the same receptor and array [2]: 0.01 | SPOT signal as a fraction of Bim BH3's signal on the same receptor and array [3]: 0.02

WVKSIRICTPDGKLGDSCHPLTRKVP [PROK2]
SPOT signal as a fraction of Bim BH3's signal on the same receptor and array [1]: 0.47 | SPOT signal as a fraction of Bim BH3's signal on the same receptor and array [2]: 0.75 | SPOT signal as a fraction of Bim BH3's signal on the same receptor and array [3]: 1.01

QASREAGAAALRNVAQRLFENYQTQS [CCDC68]
SPOT signal as a fraction of Bim BH3's signal on the same receptor and array [1]: 0.18 | SPOT signal as a fraction of Bim BH3's signal on the same receptor and array [2]: 0.21 | SPOT signal as a fraction of Bim BH3's signal on the same receptor and array [3]: 0.36

KLALEQRCRELRARLRRLEETLPRRI [KIF19]
SPOT signal as a fraction of Bim BH3's signal on the same receptor and array [1]: 1.04 | SPOT signal as a fraction of Bim BH3's signal on the same receptor and array [2]: 0.72 | SPOT signal as a fraction of Bim BH3's signal on the same receptor and array [3]: 1.14

KIETTPESRYDAQIGDSVSLTCSTTG [VCAM1]
SPOT signal as a fraction of Bim BH3's signal on the same receptor and array [1]: 0.03 | SPOT signal as a fraction of Bim BH3's signal on the same receptor and array [2]: 0.03 | SPOT signal as a fraction of Bim BH3's signal on the same receptor and array [3]: 0.05
